Measured values reported in patent US20210253715A1 (NATIONAL RESEARCH COUNCIL OF CANADA, published 2021).
Blank lines part the entries; values can stand above or below the binder they belong to.

Assays:
human IGF1R [1] = biological target: T1, human IGF1R (human, UniProt P08069 31-932, limits assumed); assay: SPR, Biacore T200, hIGF1R immobilised on CM4 chip; parental VHH, not the IDS fusion
T1 construct: also called hIGF1R; h-IGF1R

human IGF1R [2] = biological target: T1, human IGF1R; assay: SPR (Biacore T200), hIGF1R immobilised on CM4 chip, analyte injected at 20 nM, 25 C
Description: (§1) Surface Plasmon Resonance (SPR) analysis was performed to determine the affinity of the IGF1R3H5-IDS construct towards human IGF1R (hIGR1R). The SPR analysis was performed on a Biacore T200 (GE Healthcare) under the following conditions. hIGF1R was immobilized on a CM4 chip at high density (FC1—ethanoloamine blocked; FC3—2,500 RUs of hIGF1R). A variable concentration of the flowing molecule was used, with contact and dissociations times of 300 and 400 s, respectively. The assay was performed at 25° C. with a flow rate of 40 μL/min and the chip was regenerated in 10 mM glycine (pH 5.5). […] In summary, the IGF1R3H5-IDS construct retains its ability to bind to the target receptor IGF1R.

human IGF1R [3] = biological target: T1, human IGF1R; assay: SPR (Biacore T200), hIGF1R immobilised on CM4 chip, analyte injected at 2.5 nM, 25 C
Description: as §1

human IGF1R [4] = biological target: T1, human IGF1R; assay: SPR (Biacore T200), hIGF1R immobilised on CM4 chip, analyte injected at 50 nM, 25 C; text says matrix effects lower the on-rate at this concentration
Description: as §1

human IGF1R [5] = biological target: T1, human IGF1R; assay: SPR, Biacore T200, hIGF1R immobilised on CM4 chip, analyte at 50 nM (FIG. 5D); the filing calls this value inaccurate because of matrix effects; analyte at 50 nM (FIG. 5D); matrix effects, called inaccurate
Description: as §1

human IGF1R [6] = biological target: T1, human IGF1R; assay: SPR (Biacore T200), hIGF1R immobilised on CM4 chip, analyte injected at 50 nM, 25 C; text calls the affinity at this concentration inaccurate (matrix effects)
Description: as §1

human IGF1R [7] = biological target: T1, human IGF1R; assay: SPR, Biacore T200, hIGF1R immobilised on CM4 chip, analyte at 2.5 nM (FIG. 5C); analyte at 2.5 nM (FIG. 5C)
Description: as §1

T1 sequence (P08069 31-932 limits assumed): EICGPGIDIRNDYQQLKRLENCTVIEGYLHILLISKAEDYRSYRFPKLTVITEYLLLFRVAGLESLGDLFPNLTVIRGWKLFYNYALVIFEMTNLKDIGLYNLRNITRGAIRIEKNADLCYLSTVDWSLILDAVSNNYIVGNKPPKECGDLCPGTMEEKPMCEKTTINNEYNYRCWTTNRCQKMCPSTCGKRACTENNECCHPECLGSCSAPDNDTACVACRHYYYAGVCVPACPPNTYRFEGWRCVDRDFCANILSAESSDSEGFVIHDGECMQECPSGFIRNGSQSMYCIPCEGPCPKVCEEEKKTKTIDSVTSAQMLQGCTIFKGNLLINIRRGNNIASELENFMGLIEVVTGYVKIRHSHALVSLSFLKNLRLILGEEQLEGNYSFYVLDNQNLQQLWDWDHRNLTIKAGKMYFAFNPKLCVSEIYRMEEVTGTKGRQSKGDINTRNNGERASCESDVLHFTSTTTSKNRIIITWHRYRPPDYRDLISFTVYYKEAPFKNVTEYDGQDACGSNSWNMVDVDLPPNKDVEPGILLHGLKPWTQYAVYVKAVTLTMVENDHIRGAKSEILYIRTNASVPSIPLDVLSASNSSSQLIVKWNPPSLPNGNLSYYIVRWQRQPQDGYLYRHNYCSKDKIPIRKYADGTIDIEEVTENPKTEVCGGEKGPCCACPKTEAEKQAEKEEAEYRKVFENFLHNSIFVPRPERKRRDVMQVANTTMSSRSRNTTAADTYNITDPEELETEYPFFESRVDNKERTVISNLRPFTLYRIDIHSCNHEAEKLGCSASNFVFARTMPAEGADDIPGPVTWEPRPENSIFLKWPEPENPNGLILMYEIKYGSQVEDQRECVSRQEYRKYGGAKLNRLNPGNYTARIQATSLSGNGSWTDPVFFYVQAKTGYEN

Kd (human IGF1R [1]): 7.5 nM
koff (human IGF1R [1]): 0.00251 s⁻¹
kon (human IGF1R [1]): 334000 M⁻¹ s⁻¹
B1: IGF1R3H5 VHH (VHH)
VHH: EVQLVESGGGLVQPGGSLRLSCAASEYPSNFYAMSWFRQAPGKEREFVSGVSRDGLTTLYADSVKGRFTISRDNSKNTLYLQMNSLRAEDTAVYYCAIVITGVWNKVDVNSRSYHYWGQGTLVTVSS
notes: also called parental VHH IGF1R3H5

Kd (human IGF1R [2]): 40.2 nM
koff (human IGF1R [2]): 0.00289 s⁻¹
kon (human IGF1R [2]): 71900 M⁻¹ s⁻¹
B2: IGF1R3H5-IDS (uncapped) (other)
chain: EVQLVESGGGLVQPGGSLRLSCAASEYPSNFYAMSWFRQAPGKEREFVSGVSRDGLTTLYADSVKGRFTISRDNSKNTLYLQMNSLRAEDTAVYYCAIVITGVWNKVDVNSRSYHYWGQGTLVTVSSGGGGSGGGGSGGGGSGGGGSGGGGSSETQANSTTDALNVLLIIVDDLRPSLGCYGDKLVRSPNIDQLASHSLLFQNAFAQQAVCAPSRVSFLTGRRPDTTRLYDFNSYWRVHAGNFSTIPQYFKENGYVTMSVGKVFHPGISSNHTDDSPYSWSFPPYHPSSEKYENTKTCRGPDGELHANLLCPVDVLDVPEGTLPDKQSTEQAIQLLEKMKTSASPFFLAVGYHKPHIPFRYPKEFQKLYPLENITLAPDPEVPDGLPPVAYNPWMDIRQREDVQALNISVPYGPIPVDFQRKIRQSYFASVSYLDTQVGRLLSALDDLQLANSTIIAFTSDHGWALGEHGEWAKYSNFDVATHVPLIFYVPGRTASLPEAGEKLFPYLDPFDSASQLMEPGRQSMDLVELVSLFPTLAGLAGLQVPPRCPVPSFHVELCREGKNLLKHFRFRDLEEDPYLPGNPRELIAYSQYPRPSDIPQWNSDKPSLKDIKIMGYSIRTIDYRYTVWVGFNPDEFLANFSDIHAGELYFVDSDPLQDHNMYNDSQGGDLFQLLMPHHHHHHHHWSHPQFEK
modifications: phosphorylated N-glycans; Man-6-P uncapped by Jack Bean alpha-mannosidase (JBMan) treatment
notes: Single-chain fusion of a VHH with an enzyme, made in Yarrowia lipolytica; the two differ only in N-glycan uncapping; also called uncapped IGF1R3H5-IDS; P454

Kd (human IGF1R [3]): 7.42 nM
koff (human IGF1R [3]): 0.00288 s⁻¹
kon (human IGF1R [3]): 388000 M⁻¹ s⁻¹
koff (human IGF1R [4]): 0.0029 s⁻¹
kon (human IGF1R [4]): 42000 M⁻¹ s⁻¹
Kd (human IGF1R [5]): ~70 nM
Kd (human IGF1R [6]): 69.8 nM
Kd (human IGF1R [2]): 46.1 nM
koff (human IGF1R [2]): 0.00295 s⁻¹
kon (human IGF1R [2]): 64000 M⁻¹ s⁻¹
Kd (human IGF1R [7]): ~7 nM
B3: IGF1R3H5-IDS (capped) (other)
chain: B2 chain
modifications: phosphorylated N-glycans; Man-6-P still capped (no uncapping)
notes: also called capped IGF1R3H5-IDS
